What was measured:
[1] = biological target: T1, F4, TNFα-derived peptide with a myristoylated lysine and fluorescein-labelled cysteine in the +2 position (UniProt P01375, myristoyl residue on the lysine side chain; 5-acetamidofluorescein coupled to a cysteine residue at position +2); assay: FP; 0 uM BSA, no NAD+
[2] = biological target: T1, F4, TNFα-derived peptide with a …; assay: FP; 3 uM BSA, no NAD+
[3] = biological target: T1, F4, TNFα-derived peptide with a …; assay: FP; 0.3 uM BSA, no NAD+

- Kd [1]: 12.3 nM
- Kd [2]: 7 nM
- Kd [3]: 9.4 nM
B1: SIRT2 (enzyme)
chain: MAEPDPSHPLETQAGKVQEAQDSDSDSEGGAAGGEADMDFLRNLFSQTLSLGSQKERLLDELTLEGVARYMQSERCRRVICLVGAGISTSAGIPDFRSPSTGLYDNLEKYHLPYPEAIFEISYFKKHPEPFFALAKELYPGQFKPTICHYFMRLLKDKGLLLRCYTQNIDTLERIAGLEQEDLVEAHGTFYTSHCVSASCRHEYPLSWMKEKIFSEVTPKCEDCQSLVKPDIVFFGESLPARFFSCMQSDFLKVDLLLVMGTSLQVQPFASLISKAPLSTPRLLINKEKAGQSDPFLGMIMGLGGGMDFDSKKAYRDVAWLGECDQGCLALAELLGWKKELEDLVRREHASIDAQSGAGVPNPSTSASPKKSPPPAKDEARTTEREKPQ

From article PMC10138348 (2023)
